Test results published in publication PMC7179087 (Biochemistry, 2019).

Assays:
Conditions in all cases: adenylation; co-substrate ATP
CC(C)[C@H](N)C(=O)O [1] = experiment: purified protein; type: biochemical, Pseudomonas entomophila
CC(C)C[C@H](N)C(=O)O [2] = experiment: purified protein; type: biochemical, Pseudomonas entomophila
CC[C@H](C)[C@H](N)C(=O)O [3] = experiment: purified protein; type: biochemical, Pseudomonas entomophila
PvfC-AWH6 = experiment: ATP-[…]PPi exchange, steady-state kinetics; type: biochemical, Pseudomonas fluorescens
CC[C@H](C)[C@H](N)C(=O)O [4] = experiment: purified protein
CC(C)[C@H](N)C(=O)O [5] = experiment: purified protein
CC(C)C[C@H](N)C(=O)O [6] = experiment: purified protein
PvfCPf0-1 = test system: PvfCPf0-1

PvfCL48 (Pseudomonas entomophila L48; A381S/I467L/L384I/V444M)
Km (CC(C)[C@H](N)C(=O)O [1]): 1200 ± 700 µM
kcat (CC(C)[C@H](N)C(=O)O [1]): 0.03 ± 0.01 s⁻¹
kcat/Km (CC(C)[C@H](N)C(=O)O [1]): 25 M⁻¹ s⁻¹
Km (CC(C)C[C@H](N)C(=O)O [2]): 15000 ± 9000 µM
kcat (CC(C)C[C@H](N)C(=O)O [2]): 2.2 ± 0.8 s⁻¹
kcat/Km (CC(C)C[C@H](N)C(=O)O [2]): 150 M⁻¹ s⁻¹

PvfCL48 (Pseudomonas entomophila L48; V444I)
Km (CC[C@H](C)[C@H](N)C(=O)O [3]): 3700 ± 700 µM
kcat (CC[C@H](C)[C@H](N)C(=O)O [3]): 1.2 ± 0.09 s⁻¹
kcat/Km (CC[C@H](C)[C@H](N)C(=O)O [3]): 320 M⁻¹ s⁻¹
Km (CC(C)[C@H](N)C(=O)O [1]): 1500 ± 200 µM
kcat (CC(C)[C@H](N)C(=O)O [1]): 10.7 ± 0.5 s⁻¹
kcat/Km (CC(C)[C@H](N)C(=O)O [1]): 7100 M⁻¹ s⁻¹
Km (CC(C)C[C@H](N)C(=O)O [2]): 3000 ± 1000 µM
kcat (CC(C)C[C@H](N)C(=O)O [2]): 0.71 ± 0.09 s⁻¹
kcat/Km (CC(C)C[C@H](N)C(=O)O [2]): 240 M⁻¹ s⁻¹

CC(C)C[C@H](N)C(=O)O [L-Leu]
Km (PvfC-AWH6): 2100 ± 600 µM

PvfCL48 (Pseudomonas entomophila L48)
Km (CC[C@H](C)[C@H](N)C(=O)O [4]): 8000 ± 2000 µM
kcat (CC[C@H](C)[C@H](N)C(=O)O [4]): 1.3 ± 0.2 s⁻¹
kcat/Km (CC[C@H](C)[C@H](N)C(=O)O [4]): 160 M⁻¹ s⁻¹
Km (CC(C)[C@H](N)C(=O)O [5]): 1200 ± 800 µM
kcat (CC(C)[C@H](N)C(=O)O [5]): 13.1 ± 0.7 s⁻¹
kcat/Km (CC(C)[C@H](N)C(=O)O [5]): 11000 M⁻¹ s⁻¹
Km (CC(C)C[C@H](N)C(=O)O [6]): 7000 ± 3000 µM
kcat (CC(C)C[C@H](N)C(=O)O [6]): 0.65 ± 0.1 s⁻¹
kcat/Km (CC(C)C[C@H](N)C(=O)O [6]): 93 M⁻¹ s⁻¹

CC(C)[C@H](N)C(=O)O [L-Val]
Km (PvfCPf0-1): 2400 ± 800 µM
